These results are taken from US20230087785A1, “Leucine-Rich Repeat Kinase 2 Allosteric Modulators” (VIB VZW, priority 2020, published 2023).

For test [1], the target named is T1, Full-length human Leucine-rich repeat kinase 2 (LRRK2), N-terminal Strep/Flag (SF) tagged (human, UniProt Q5S007 1-2527).
T1 construct: Purified from HEK293T cells in presence of GDP or GTPγS; also called FL LRRK2; FL-LRRK2
In words: MST; LRRK2 titrated to m-TAMRA-labelled Nb, 500 µM GDP. Here is the method:
(§1) Microscale thermophoresis (MST) experiments were performed for determining equilibrium binding affinities (KD) of Nbs binding to FL-LRRK2. Therefore, Nb were site-specifically labelled at their C-terminus with m-TAMRA, using Sortase-mediated peptide exchange. The Nbs were recloned into a pHEN29 vector which is subsequently used to express and purify the Nbs with a C-terminal LPETGG-His₆-EPEA tag. Exchange of the latter peptide with an m-TAMRA-labeled GGGYK peptide (GenicBio, Shanghai, China) was performed using Sortase, and unlabeled Nb and unincorporated peptide were removed using a Ni-NTA and SEC purification step, respectively. […] After incubation at 4° C. for 30 mins, samples were loaded in capillaries and measurements were performed at 25° C. using 50-70% LED power and 80% laser intensity (laser on-time: 30 s, laser off-time: 5 s). All experiments were performed in triplicate.

Test [2] addresses T2, LRRK2 RocCOR domain construct (human, UniProt Q5S007 1334-1840).
T2 construct: A second construct (residues 1293-1840, N-terminal His6-MBP) was used in certain screening experiments; not shown: N-terminal Twin-Strep-tag; C-terminal His10-tag
T2 sequence: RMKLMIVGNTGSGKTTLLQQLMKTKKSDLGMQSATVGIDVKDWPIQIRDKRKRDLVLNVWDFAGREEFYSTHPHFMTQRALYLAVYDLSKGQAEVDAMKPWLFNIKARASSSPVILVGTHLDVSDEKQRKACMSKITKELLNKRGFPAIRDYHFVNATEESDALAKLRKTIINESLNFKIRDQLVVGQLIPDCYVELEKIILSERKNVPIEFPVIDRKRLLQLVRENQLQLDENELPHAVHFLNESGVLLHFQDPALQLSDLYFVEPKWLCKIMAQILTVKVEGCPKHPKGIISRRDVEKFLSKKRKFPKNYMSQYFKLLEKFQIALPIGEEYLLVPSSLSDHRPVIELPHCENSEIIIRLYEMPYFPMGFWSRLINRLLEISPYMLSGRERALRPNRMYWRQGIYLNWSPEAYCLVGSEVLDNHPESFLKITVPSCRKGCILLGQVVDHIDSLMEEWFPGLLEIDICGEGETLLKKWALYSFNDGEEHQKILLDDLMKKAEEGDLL
In words: ELISA, antigen coated on the plate, purified Nb detected via its EPEA tag. In short, it runs like this: (§2)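 The RocCOR, Roc, COR-B and kinase-WD40 constructs were coated side by side on one ELISA plate. Binding of each purified nanobody to every coated construct was then detected.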
(ELISA stands for enzyme-linked immunosorbent assay.)

Test [3] deals with T3, LRRK2 Roc domain construct (human, UniProt Q5S007 1329-1520).
T3 construct: not shown: N-terminal His6-tag of pET-28a
T3 sequence: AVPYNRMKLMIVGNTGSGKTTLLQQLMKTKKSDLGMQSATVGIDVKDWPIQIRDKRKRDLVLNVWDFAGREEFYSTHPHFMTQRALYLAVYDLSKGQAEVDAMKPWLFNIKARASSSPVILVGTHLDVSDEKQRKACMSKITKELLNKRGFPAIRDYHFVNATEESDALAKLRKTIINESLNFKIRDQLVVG
The description is as above. In outline: as §2

Test [4] concerns the target T4, LRRK2 COR-B construct (C-terminal part of the COR domain), His6-MBP tagged (human, UniProt Q5S007 1672-1840).
T4 construct: also called (MBP-)COR-B; not shown: N-terminal His6-MBP-tag of pDEST-566
The description is as above. In short, it runs like this: as §2

Test [5] deals with T1, Full-length human Leucine-rich repeat …. In words: BLI; Nb on LRRK2 trapped on streptavidin sensor via biotinylated Nb42; steady-state fit. How it is done:
(§3) To determine the binding affinity (dissociation constant KD) of the ten Nbs for LRRK2, two methods were used in parallel: microscale thermophoresis (MST) and bio-layer interferometry (BLI). For the MST experiment, we site-specifically labeled the ten Nbs with a m-TAM RA fluorophore at its C-terminus, using sortase-mediated coupling, and then titrated increasing amounts of full-length LRRK2 to these Nbs (FIGS. 13A-13E).
(§4) Biolayer interferometry (BLI) measurements were performed using an Octet Red96 (Forte Bio, Inc.) system in a buffer containing 50 mM HEPES pH 8.0, 150 mM NaCl, 10 mM MgCl₂, 5% glycerol, 0.1% BSA, 0.05% Tween, at 25° C. and with shaking speed 1000 rpm. […] The biotinylated Nbs were first loaded on pre-equilibrated SA biosensors at a concentration of 5 μg/mL. This Nb-loaded sensor was then used to trap FL-LRRK2 from a 50 nM LRRK2 solution. […] All experiments were performed in triplicate.
For orientation: BLI is a label-free optical method that tracks binding on a fibre tip over time.

For test [6], the target named is T5, LRRK2 kinase-WD40 domain construct (human, UniProt Q5S007 1876-2527).
T5 construct: also called K-WD40; not shown: N-terminal His-tag (pFastBac)
T5 sequence: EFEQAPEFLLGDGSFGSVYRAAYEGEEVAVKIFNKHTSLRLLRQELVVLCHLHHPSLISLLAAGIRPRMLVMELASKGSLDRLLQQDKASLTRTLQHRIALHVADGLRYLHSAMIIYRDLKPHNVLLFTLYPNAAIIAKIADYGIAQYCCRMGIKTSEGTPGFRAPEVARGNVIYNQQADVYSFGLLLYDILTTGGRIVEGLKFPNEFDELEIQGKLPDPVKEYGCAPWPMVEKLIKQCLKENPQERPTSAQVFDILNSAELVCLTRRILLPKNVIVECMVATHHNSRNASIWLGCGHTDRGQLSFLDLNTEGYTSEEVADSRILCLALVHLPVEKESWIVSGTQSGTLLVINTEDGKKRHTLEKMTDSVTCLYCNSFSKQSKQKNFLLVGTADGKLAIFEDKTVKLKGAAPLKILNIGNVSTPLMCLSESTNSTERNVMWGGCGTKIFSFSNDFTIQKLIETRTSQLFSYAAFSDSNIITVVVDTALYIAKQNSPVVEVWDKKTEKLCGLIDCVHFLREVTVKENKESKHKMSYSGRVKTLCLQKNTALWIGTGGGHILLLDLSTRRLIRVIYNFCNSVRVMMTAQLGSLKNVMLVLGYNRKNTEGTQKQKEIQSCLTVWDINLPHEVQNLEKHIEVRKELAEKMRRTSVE
In words: ELISA, antigen coated on the plate, purified Nb detected via its EPEA tag. In short, it runs like this:
as §2

The target in test [7] is T1, Full-length human Leucine-rich repeat …. In words: BLI; Nb on LRRK2 trapped on streptavidin sensor via biotinylated Nb40; steady-state fit. Here is the method: as §3, §4
For test [8] the target is unchanged. In words: MST; LRRK2 titrated to m-TAMRA-labelled Nb, in presence of GTPγS instead of GDP; MST in presence of GTPγS instead of GDP. Here is the method: as §1
The target is the same in test [9]. In words: cell-based or functional assay.
For test [10] the target is unchanged. In words: ELISA titration on coated LRRK2, Nb detected via its C-terminal EPEA tag, A405 read at 0.5 h. How it is done: (§5) LRRK2 was coated in the wells of the ELISA plate and the ELISA signal for a dilution series of the respective Nbs (detected via their C-terminal EPEA-tag) is plotted in function of the Nb concentration. […] A “no antigen control”, where no LRRK2 was coated on the bottom of the well, is also included.
(§6) Detection of Nb binding was performed using the C-terminal EPEA tag of the Nbs as described before, resulting in a dose response titration curve reflecting an apparent affinity of the Nbs. […] A “no antigen control”, where no LRRK2 was coated on the bottom of the well, was also included.

For test [11] the target is unchanged. In words: kinase kinetics (PhosphoSens, varied ATP), global fit to mixed inhibition; ATP-bound LRRK2; enzyme kinetics, mixed inhibition fit; ATP-bound LRRK2. Here is the method:
(§7) Full Michaelis-Menten curves (relative velocity versus [ATP]) in presence of different Nb concentrations were collected at 30° C. in a buffer consisting of 50 mM HEPES pH 7.5, 0.1% Brij-35, 50 mM NaCl, 10 mM MgCl₂ and […], using a fixed concentration of AQT0615 (10 μM) and varying concentrations of ATP. The LRRK2 concentration was chosen such that initial rates (linear fluorescence versus time curves) were obtained, and LRRK2, ATP and the Nbs were preincubated at 4° C. for 30 min prior to starting the reaction by adding the peptide substrate. The Michaelis-Menten curves for the different Nb concentrations were globally fit on a mixed-inhibition model using GraphPad Prism, according to the equation: […]

For test [12] the target is unchanged. In words: kinase kinetics (PhosphoSens, varied ATP), global fit to mixed inhibition; affinity for apo-LRRK2; enzyme kinetics, mixed inhibition fit; apo-LRRK2. How it is done: as §7
The target is the same in test [13]. In words: ELISA titration on coated LRRK2, Nb detected via its C-terminal EPEA tag, A405 read at 10 h. How it is done: as §5, §6

B1: Nb40 (CA14135) (VHH)
VHH: QVQLVESGGGLVQPGGSLRLSCVASGTIYAINRMGWYRQAPGKQRELVALITLGGGTNYGDSVKGRFTISRDNAKNTGYLQMNSLKPEDTAVYYCKVESSGYTDVFWGQGTQVTVSS
notes: biotinylated form used as trapping agent in BLI
On to B1, for which the Kd (usually the constant that tells how readily two partners part at equilibrium) in [1] turned out to be 26 nM; in test [5], 41 nM. In addition, the binding result in test [2], in test [3] and in test [4] was “no binding (tested: not given)” each time.

B2: Nb42 (CA14259) (VHH)
VHH: QVQLVESGGGLVQAGGSLRLSCAASGDVNYAVGWFRQAPRKEREFVAAINWRGDNTDYTDSVKGRFTISRDNAKNTVYLQMNSLKPEDTAVYYCAAKSAPYWYSDIAPDYWGQGTQVTVSS
notes: biotinylated form used as trapping agent in BLI of Nb40
Take B2: the binding result in test [2], in test [4] and in [6] was “no binding (tested: not given)” throughout. Also, the Kd in test [7] was determined as 82 nM; in test [8] it was 94 nM.

B3: Nb6 (CA12618) (VHH)
VHH: QVQLVESGGGLVQAGGSLRLSCAASGSIFSPTAMGWYRQAPGKERELVAGITSGGYTNYRNFARGRFTISRDNAKKTVYLQMNSLNPEDTAVYYCNTLTISWSWGQGTQVTVSS
Consider B3, for which the “IC50 of in vitro LRRK2 kinase activity (AQT0615 peptide, PhosphoSens, 1 mM ATP)” value in [9] worked out at 14000 nM. Further, the Kd in test [1] amounted to 83 nM; in [7] it was 7 nM. Besides, the binding result in test [3] and in test [6] was “no binding (tested: not given)” each time. In addition, the EC50 (read off the curve) – broadly, the concentration giving half of the maximal effect – in [10] was around 5 nM. Further, the Ki (commonly the equilibrium dissociation constant of an inhibitor or competing ligand from its target) came to 8000 nM in [11] and 5000 nM in test [12].

B4: Nb1 (CA12610) (VHH)
VHH: QVQLVESGGGLVQAGGSLRLSCVASGRIFSGNAMGWYRQAPGRQRELVAGITNGGYTNYRQFVKGRFTISRDNAKRTVYLQMNSLKPEDTAVYYCNALDREARQVDYWGQGTQVTVSS
Regarding B4, the “IC50 of in vitro LRRK2 kinase activity (AQT0615 peptide, PhosphoSens, 1 mM ATP)” value in test [9] was 8000 nM. In addition, the Kd in test [1] was 91 nM; in test [7], 114 nM. Moreover, the binding result in test [3] and in [6] was “no binding (tested: not given)” each time. The “EC50 (read off the curve)” value in test [13] was around 10 nM. Further, the Ki was determined as 30000 nM in test [11] and 16000 nM in test [12].
